{"source": "paper PMC10128040", "about": "“Structural Elucidation of a Protective B Cell Epitope on Outer Surface Protein C (OspC) of the Lyme Disease Spirochete, Borreliella burgdorferi” (mBio, 2023)", "key": {"[1]": {"biological_target": "recombinant OspC type B (OspCB), residues 38 to 202 (B. burgdorferi strain ZS7) (UniProt Q44977)", "assay": "crystal structure; OspCB alone (22°C, 100 mM sodium phosphate citrate pH 4.2, 41.9% PEG 600; 1.5 Å) and OspCK alone (4°C, 100 mM Tris pH 8.5, 40% PEG 400, 200 mM LiSO4; 1.9 Å); P2_(1)"}, "[2]": {"biological_target": "recombinant OspC type K (OspCK), residues 38 to 202 (B. burgdorferi strain 297)", "assay": "crystal structure; OspCB alone (22°C, 100 mM sodium phosphate citrate pH 4.2, 41.9% PEG 600; 1.5 Å) and OspCK alone (4°C, 100 mM Tris pH 8.5, 40% PEG 400, 200 mM LiSO4; 1.9 Å); P2_(1)"}, "[3]": {"biological_target": "T1, biotinylated recombinant OspC type A (OspCA) (Borreliella burgdorferi strain B31, …, UniProt Q07337, biotinylated (site not stated))", "T1 construct": "Outer surface protein C type A, B. burgdorferi strain B31, residues 38 to 201; also called biotinylated OspCA; biotin-tagged recombinant OspC type A; not shown: deca-histidine, N-terminal, cleaved; SUMO, N-terminal, cleaved", "assay": "ELISA; capture ELISA: B5 IgG coated at 1 μg/mL in PBS; biotinylated OspC types A, B, K diluted 2-fold from 20 μg/mL; detected with avidin-HRP", "settings": "both partners purified"}, "[4]": {"biological_target": "T2, biotinylated recombinant OspC type B (OspCB) (Borreliella burgdorferi strain ZS7, …, UniProt Q44977, biotinylated (site not stated))", "T2 construct": "Outer surface protein C type B, B. burgdorferi strain ZS7, residues 38 to 202; also called biotinylated OspC type B; biotin-tagged recombinant OspC type B; not shown: deca-histidine, N-terminal, cleaved", "assay": "ELISA; capture ELISA: B5 IgG coated at 1 μg/mL in PBS; biotinylated OspC types A, B, K diluted 2-fold from 20 μg/mL; detected with avidin-HRP", "settings": "both partners purified"}, "[5]": {"biological_target": "native OspC type A (OspCA) on the surface of viable B. burgdorferi strain B313 (B. burgdorferi (endogenous in strain B313)) (UniProt Q07337)", "assay": "flow cytometry on cells; 5 x 10^6 live B. burgdorferi B313 cells incubated with 10 μg/mL chimeric B5 IgG1 at 37°C for 1 h in BSK-II; goat anti-human IgG-Alexa 647; BD FACSCalibur"}, "[6]": {"biological_target": "T1, biotinylated recombinant OspC type A …", "assay": "BLI; biotinylated OspCA (3 μg/mL) captured on streptavidin biosensors; MAb B5 100 to 1.56 nM, 5 min association, 30 min dissociation; PBS with 2% BSA; 1:2 bivalent analyte model; apparent; Octet RED96e", "settings": "both partners purified"}, "[7]": {"biological_target": "T3, recombinant OspC type A (OspCA), residues 38 to 201 (B. burgdorferi strain B31, UniProt Q07337)", "T3 construct": "Outer surface protein C type A, B. burgdorferi strain B31, residues 38 to 201; Homodimer; also called rOspC type A; outer surface protein C; not shown: deca-histidine, N-terminal, cleaved; SUMO, N-terminal, cleaved", "assay": "crystal structure; B5 Fab complexed with OspCA 1:1, 10 mg/mL; sitting drop, 22°C, 100 mM sodium cacodylate pH 6.5, 5% PEG 8K, 40% MPD; 2.7 Å, P2_(1)2_(1)2", "settings": "both partners purified"}, "[8]": {"biological_target": "the molecule itself", "assay": "crystal structure; B5 Fab complexed with OspCA 1:1, 10 mg/mL; sitting drop, 22°C, 100 mM sodium cacodylate pH 6.5, 5% PEG 8K, 40% MPD; 2.7 Å, P2_(1)2_(1)2"}}}
{"molecule": "recombinant OspC type B (OspCB), residues 38 to 202 (from UniProt Q44977 38-202) (domain or fragment)", "values": [{"measurement": "stoichiometry N", "setting": "[1]", "value": 2}]}
{"molecule": "recombinant OspC type K (OspCK), residues 38 to 202 (domain or fragment)", "values": [{"measurement": "stoichiometry N", "setting": "[2]", "value": 2}]}
{"molecule": "chimeric B5 IgG1 (mouse B5 VH and VL on human IgG1 Fc and kappa light chain) (antibody, V domains shown, mouse B5 VH, as the VH of the heavy chain of m1; human IgG1 heavy chain constant region from the 'human IgG1 Fc' expression vector; mouse B5 VL, as the VL of the light chain of m1; human kappa light chain constant region from the expression vector; IgG1, kappa; also called chimeric derivative of B5; source: Expi293 cells, transfected, purified; copies: 2 + 2) VH: EVQLEESGPEQKKPGETVMMSCKASGYTFTDHSMHWVKQAPGKGLKWMGWINTETGEPTCADDFKGRFALSLETSSRTAFLQINNLKNEDTAIYFCIGRWGYYVYWGQGTTLVVSS VL: DIQMTQSPASLSVSVGESVTIICRASENINSNLAWYQQKQGKPPQLLVYAATNLAGGVPSRFSGSGSGTQYSLKINSLQSEDFGTYYCQHVWGSPWTFGGGTKLEIK", "values": [{"measurement": "binding result", "setting": "[3]", "value": "binds"}, {"measurement": "binding result", "setting": "[4]", "value": "no binding (tested: 20 μg/mL)"}, {"measurement": "MFI", "setting": "[5]", "value": "> 3200"}]}
{"molecule": "B5 IgG (as used for BLI and HX-MS; mouse IgG2a or chimeric IgG1 not told) (antibody, V domains shown, mouse B5 VH, as the VH of the heavy chain of m1; mouse B5 VL, as the VL of the light chain of m1; The methods say the chimeric IgG1 was used for dot blot and flow cytometry, which may mean that the mouse IgG2a was used here; also called MAb B5; B5 MAb; copies: 2 + 2) VH: EVQLEESGPEQKKPGETVMMSCKASGYTFTDHSMHWVKQAPGKGLKWMGWINTETGEPTCADDFKGRFALSLETSSRTAFLQINNLKNEDTAIYFCIGRWGYYVYWGQGTTLVVSS VL: DIQMTQSPASLSVSVGESVTIICRASENINSNLAWYQQKQGKPPQLLVYAATNLAGGVPSRFSGSGSGTQYSLKINSLQSEDFGTYYCQHVWGSPWTFGGGTKLEIK", "values": [{"measurement": "Kd", "setting": "[6]", "value": "~0.2", "unit": "nM"}]}
{"molecule": "B5 Fab fragment (Fab, V domains shown, VH and CH1 of mouse MAb B5; VL and CL of mouse MAb B5; Fab of the mouse IgG2a MAb B5; also called Fab B5; source: papain digestion of B5 IgG from the CDC; Fc depleted by protein A FPLC; purified by SEC (Superdex 200)) VH: EVQLEESGPEQKKPGETVMMSCKASGYTFTDHSMHWVKQAPGKGLKWMGWINTETGEPTCADDFKGRFALSLETSSRTAFLQINNLKNEDTAIYFCIGRWGYYVYWGQGTTLVVSS VL: DIQMTQSPASLSVSVGESVTIICRASENINSNLAWYQQKQGKPPQLLVYAATNLAGGVPSRFSGSGSGTQYSLKINSLQSEDFGTYYCQHVWGSPWTFGGGTKLEIK", "values": [{"measurement": "stoichiometry N", "setting": "[7]", "value": 1}]}
{"molecule": "recombinant OspC type A (OspCA), residues 38 to 201 (domain or fragment, B. burgdorferi strain B31, UniProt Q07337 38-201, looked up, Outer surface protein C type A, B. burgdorferi strain B31, residues 38 to 201; Homodimer; also called rOspC type A; outer surface protein C; not shown: deca-histidine, N-terminal, cleaved; SUMO, N-terminal, cleaved) KGPNLTEISKKITDSNAVLLAVKEVEALLSSIDEIAAKAIGKKIHQNNGLDTENNHNGSLLAGAYAISTLIKQKLDGLKNEGLKEKIDAAKKCSETFTNKLKEKHTDLGKEGVTDADAKEAILKTNGTKTKGAEELGKLFESVEVLSKAAKEMLANSVKELTSP", "values": [{"measurement": "stoichiometry N", "setting": "[8]", "value": 2}]}
